Assay results reported in US20110217291A1 (ZymoGenetics, published 2011).

B1: FcγRIIA/RIA-CH6 (soluble hybrid receptor: first Ig domain of FcγRIIA followed by second and third Ig domains of FcγRIA, C-terminal six His tag) (receptor)
chain: AAPPKAVLKLEPPWINVLQEDSVTLTCQGARSPESDSIQWFHNGNLIPTHTQPSYRFKANNNDSGEYTCQTGQTSLSDPVHLTVLSEWLLLQVSSRVFTEGEPLALRCHAWKDKLVYNVLYYRNGKAFKFFHWNSNLTILKTNISHNGTYHCSGMGKHRYTSAGISVTVKELFPAPVLNASVTSPLLEGNLVTLSCETKLLLQRPGLQLYFSFYMGSKTLRGRNTSSEYQILTARREDSGLYWCEAATEDGNVLKRSPELELQVLGGSGGHHHHHH
B2: untagged recombinant soluble human FcγRIA (receptor)
chain: QVDTTKAVITLQPPWVSVFQEETVTLHCEVLHLPGSSSTQWFLNGTATQTSTPSYRITSASVNDSGEYRCQRGLSGRSDPIQLEIHRGWLLLQVSSRVFTEGEPLALRCHAWKDKLVYNVLYYRNGKAFKFFHWNSNLTILKTNISHNGTYHCSGMGKHRYTSAGISVTVKELFPAPVLNASVTSPLLEGNLVTLSCETKLLLQRPGLQLYFSFYMGSKTLRGRNTSSEYQILTARREDSGLYWCEAATEDGNVLKRSPELELQVLG
modifications: N-terminal pyro-glutamic acid, converted from the glutamine at position 16
B3: FcγRIIIA/RIA-CH6 (soluble hybrid receptor: first Ig domain of FcγRIIIA followed by second and third Ig domains of FcγRIA, C-terminal six His tag) (receptor)
chain: EDLPKAVVFLEPQWYRVLEKDSVTLKCQGAYSPEDNSTQWFHNESLISSQASSYFIDAATVDDSGEYRCQTNLSTLSDPVQLEVHIGWLLLQVSSRVFTEGEPLALRCHAWKDKLVYNVLYYRNGKAFKFFHWNSNLTILKTNISHNGTYHCSGMGKHRYTSAGISVTVKELFPAPVLNASVTSPLLEGNLVTLSCETKLLLQRPGLQLYFSFYMGSKTLRGRNTSSEYQILTARREDSGLYWCEAATEDGNVLKRSPELELQVLGGSGGHHHHHH

The binders below were run against rabbit polyclonal anti-OVA antibodies (assay: cell-based or functional assay).

IC50 (read off the curve); IL-6 secretion by MC/9 mast cells stimulated with anti-OVA/OVA immune complexes | Binder
~2 pmol | B1
~1 pmol | B2
~2 pmol | B3

Molecular target: rabbit polyclonal anti-OVA antibodies
Test: cell-based or functional assay
Remark: another data set of the same source

IC50 (read off the curve); IL-13 secretion by MC/9 mast cells stimulated with anti-OVA/OVA immune complexes | Binder
~2 pmol | B1
~1 pmol | B2
~1 pmol | B3

Molecular target: rabbit polyclonal anti-OVA antibodies
Test: cell-based or functional assay
Remark: another data set of the same source

IC50 (read off the curve); TNF-α secretion by MC/9 mast cells stimulated with anti-OVA/OVA immune complexes | Binder
~2 pmol | B1
~1 pmol | B2
~1 pmol | B3

Molecular target: rabbit polyclonal anti-OVA antibodies
Test: cell-based or functional assay
Remark: another data set of the same source

IC50 (read off the curve); MCP-1 secretion by MC/9 mast cells stimulated with anti-OVA/OVA immune complexes | Binder
~2 pmol | B1
~2 pmol | B2
~2 pmol | B3
